Here are results for 13 molecules from patent publication US20170002075A1 (AbbVie / Abbott, published 2017).

By EC50 is commonly meant the concentration needed to bring the measured effect to its halfway point. One may read the IC50 as the point on the concentration scale where inhibition reaches its midpoint. The low end stands for higher potency, the high end for lower potency. The Kd is the constant that tells how readily two partners part at equilibrium. A high value points to a looser complex. The koff is the rate constant with which the complex falls apart. In general, kon refers to the second-order rate constant of association. Low readings indicate slow association, high ones fast association.

In test [1] the target is T1, recombinant human RAGE (plate coat of the competition ELISA of Example 1.4).
T1 construct: not shown: The carrier of the coated preparation, if it had one
T1 sequence (chain, as listed by the source limits assumed): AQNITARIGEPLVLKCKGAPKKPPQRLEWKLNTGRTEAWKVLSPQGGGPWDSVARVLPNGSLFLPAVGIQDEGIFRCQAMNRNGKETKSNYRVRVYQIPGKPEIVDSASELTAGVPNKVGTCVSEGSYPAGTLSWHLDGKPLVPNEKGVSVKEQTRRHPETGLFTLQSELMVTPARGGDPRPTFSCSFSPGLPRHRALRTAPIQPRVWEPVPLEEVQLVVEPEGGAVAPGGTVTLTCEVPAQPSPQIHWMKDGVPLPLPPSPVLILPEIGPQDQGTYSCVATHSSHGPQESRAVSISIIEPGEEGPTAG
In words: competition ELISA on plates coated with recombinant human RAGE (2 µg/mL); competitor: biotinylated hybridoma-derived 7F9 (7F9-biotin), streptavidin-HRP, OD 450 nm; the unit comes from the axis 'Log MAbs (M)'. The procedure:
The purified chimeric anti-human RAGE monoclonal antibodies were tested for their ability to bind human RAGE in a competition ELISA. […] Equal volumes (50 μL) of each recombinant chimeric anti-human RAGE monoclonal antibodies or hybridoma-derived anti-human RAGE monoclonal antibodies and each corresponding biotinylated hybridoma-derived anti-RAGE mAbs were mixed. 50 μL of this mixture was then added to ELISA plates pre-coated with recombinant human RAGE at 2 μg/mL and incubated for 1.5 hours at room temperature. Wells were washed three times with PBS+0.05% Tween-20. Streptavidin HRP (1 mg/mL) was diluted 1:16000 in PBST+10% Superblock; 50 µL/well was added and the plates incubated for 1 hour at room temperature. Plates were washed 3 times with PBS+0.05% Tween-20. 50 µL of TMB solution (Sigma, St Louis, Mo.) was added to each well and incubated for 10 minutes at room temperature. The reaction was stopped by addition of IN sulphuric acid. Plates were read spectrophotometrically at a wavelength of 450 nm.

The target of test [2] is T2, hRAGE (1-331) / human sRAGE 1-331, V#400 (human, UniProt Q15109 23-331).
T2 construct: also called sRAGE [RAGE (1-331)]; RAGE (antigen of the Biacore runs)
T2 sequence (Q15109 23-331): as the sequence (chain, as listed by the source limits assumed) above
Nature of the test: competition ELISA on coated hRAGE (1-331); competitor biotinylated m11E6 at 0.3 µg/ml. Here is the method:
ELISA plates (Costar 3369) were coated overnight at 4° C. with 50 μl/well of 2 μg/ml hRAGE (1-331) in 0.2 M sodium carbonate-bicarbonate buffer, pH 9.4, washed with Wash Buffer (PBS containing 0.1% Tween 20), and blocked for 1 hr at room temperature with 200 pd/well of 2% nonfat dry milk in PBS. […] After incubating the plates for 1 hr at room temperature, and washing with Wash Buffer, bound antibodies were detected using 100 μl/well of 1:10,000 dilution of HRP-conjugated streptavidin (Fitzgerald) in ELISA buffer. After incubating for 1 hr at room temperature, and washing with Wash Buffer, color development was performed by adding 100 μl/well of TMB Buffer (Zymed). After incubating for 15 min at room temperature, color development was stopped by adding 50 μl/well of IN hydrochloric acid. Absorbance was read at 490 nm.
On the technique in general: In an ELISA, binding on a coated surface is turned into a signal by an enzyme label.

In test [3] the target is T2, hRAGE (1-331) / human sRAGE 1-331, V#400. In words: Biacore SPR, mAb captured via anti-human Fc, sRAGE (1-331) injected 30-0.12 nM, PBS-P buffer, 1:1 fit. From the text:
Biacore 2000 and Biacore T100 instruments were used to measure anti-RAGE mAb binding kinetics. The assay format for mAb affinity analysis was Fc-based capture via immobilized anti-Fc antibodies. A standard amine coupling protocol was employed to immobilize Fc-specific IgG via primary amines to the carboxy-methyl (CM) dextran surface of CM5 sensorchips (Biacore). For the study of mouse anti-RAGE mAbs, anti-mouse Fc (Biacore, anti-mouse, BR-1005-14) was used as the immobilized capture reagent and for the study of humanized anti-RAGE mAbs, anti-human Fc (Pierce 31125) was used as the immobilized capture reagent. An automated protocol, available on the Biacore 2000 and Biacore T100, was used to immobilize 8000-10000 RU of capture reagent in all 4 flowcells of the sensorchip. Briefly, the CM-dextran surfaces were activated by freshly prepared 1:1 50 mM N-hydroxysuccinimide (NHS):200 mM 3-(N,N-dimethylamino) propyl-N-ethylcarbodiimide (EDC). Then the anti-Fc IgG capture reagent (20 ug/ml in 10 mM sodium acetate, pH4.5) was applied to the surface followed by deactivation of the surface and blocking of the residual reactive sites with 1M ethanolamine (pH 8.5).
The running buffer employed was PBS-P [1×PBS (Sigma P3813), pH 7.4, 0.005% P20 surfactant (Biacore)] for the humanized antibodies. Each experimental cycle consisted of the following steps: 1) anti-RAGE mAbs were captured in flowcells 2, 3 or 4 to a level of 50-200 RU (depending on the antigen). All measurements were referenced against flowcell 1 which had no captured anti-RAGE mAb. 2) Antigen was injected through all 4 flowcells, 240 ul at 80 ul/min. After the antigen injection, dissociation was monitored for 600 seconds at 80 ul/min. 3) the anti-Fc capture surface was regenerated with low pH glycine. For kinetic determinations, antigen injections were a 3 fold dilution series from either 30 nM-0.12 nM (for sRAGE [RAGE (1-331)] and buffer only in randomized duplicates.
Data were processed using either Biacore evaluation software or Scrubber 2.0 software (BioLogic Software). Briefly, the data were double referenced by first, subtracting the signal from the reference cell and second, by subtracting the signal from buffer-only injections.
For orientation: SPR reads the build-up and loss of mass on a sensor chip optically.

B1: 7F9-recombinant (antibody, V domains shown)
VH: EEKLEESGGGLVQLGGSMKISCVASGFTLSNYWMDWVRQSPEKGLEWIAEIRLKSNYYSTHYAESVKGRFSISRDDSKGSVSLQMDNLTAEDTGIYFCARNAYWYFDVWGTGTTVTVSS
VL: DIVMTQSHKFMSTSVGDRVSATCKASQDVGTSVAWYQQKLGQSPKLLIYWTSTRHTGVPDRFTGSGSGTDFTLTISNVQSEDLADYFCQQYNNYPLTFGDGTKLELKR
notes: also called recombinant chimeric anti-human RAGE monoclonal antibody 7F9 (human IgG1/kappa)
As for B1, the half-maximal effective concentration (EC50) in test [1] is 108 nM.

B2: humanized anti-RAGE antibody h11E6.1 (antibody, V domains shown)
VH: EVQLVQSGSELKKPGASVKVSCKASGYTFTNFGMNWVRQAPGQGLEWMGYINTNTGESIYSEEFKGRFVFSLDTSVSTAYLQICSLKAEDTAVYYCARSRMVTAYGMDYWGQGTTVTVSS
VL: DIQMTQSPSSLSASVGDRVTITCKASQNVGTAVAWYQQKPGKAPKLLIYSASNRYTGVPSRFSGSGSGTDFTLTISSLQPEDFATYYCQQYSSYPLTFGQGTKLEIKR
notes: Full-length humanized antibody transiently produced in 293-6E cells
With B2, in test [2], the IC50 was determined as 19.7 nM.

B3: humanized anti-RAGE antibody h11E6.13 (antibody, V domains shown)
VH: EIQLVQSGAEVKKPGASVKVSCKASGYTFTNFGMNWVRQAPGQGLEWMGYINTNTGESIYSEEFKGRFTFTLDTSTSTAYMELSSLRSEDTAVYFCARSRMVTAYGMDYWGQGTSVTVSS
VL: DIQMTQSPSSLSASVGDRVTITCKASQNVGTAVAWYQQKPGKAPKLLIYSASNRYTGVPSRFSGSGSGTDFTLTISSLQPEDFATYYCQQYSSYPLTFGQGTKLEIKR
notes: as for B2
In test [2], B3 gave an IC50 of 16.8 nM.

B4: humanized anti-RAGE antibody h11E6.9 (antibody, V domains shown)
VH: EVQLVQSGAEVKKPGASVKVSCKASGYTFTNFGMNWVRQAPGQGLEWMGYINTNTGESIYSEEFKGRVTMTRDTSTSTAYMELSSLRSEDTAVYYCARSRMVTAYGMDYWGQGTSVTVSS
VL: DIQMTQSPSSLSASVGDRVTITCKASQNVGTAVAWYQQKPGKAPKLLIYSASNRYTGVPSRFSGSGSGTDFTLTISSLQPEDFATYYCQQYSSYPLTFGQGTKLEIKR
notes: as for B2
Turning to B4, in test [2], the IC50 came to 17.9 nM.

B5: humanized anti-RAGE antibody h11E6.3 (antibody, V domains shown)
VH: EVQLVQSGSELKKPGASVKVSCKASGYTFTNFGMNWVRQAPGQGLEWMGYINTNTGESIYSEEFKGRFVFSLDTSVSTAYLQICSLKAEDTAVYYCARSRMVTAYGMDYWGQGTTVTVSS
VL: EIVMTQSPATLSLSPGERATLSCKASQNVGTAVAWYQQKPGQAPRLLIYSASNRYTGIPARFSGSGSGTDFTLTISSLQSEDFAVYYCQQYSSYPLTFGQGTKLEIKR
notes: as for B2
As for B5, the IC50 in test [2] stood at 18.8 nM.

B6: humanized anti-RAGE antibody h11E6.8 (antibody, V domains shown)
VH: EIQLVQSGSELKKPGASVKVSCKASGYTFTNFGMNWVRQAPGQGLEWMGYINTNTGESIYSEEFKGRFVFSLDTSVSTAYLQICSLKAEDTAVYFCARSRMVTAYGMDYWGQGTTVTVSS
VL: EIVMTQSPATLSLSPGERATLSCKASQNVGTAVAWYQQKPGQSPRLLIFSASNRYTGVPARFSGSGSGTDFTLTISSLQSEDFAVYFCQQYSSYPLTFGQGTKLEIKR
notes: as for B2
In test [3], B6 had a dissociation constant Kd of 0.033 nM, a dissociation rate constant (koff) of 0.00084 s⁻¹ and a kon of 2.5e+07 M⁻¹ s⁻¹. Moreover, the IC50 in test [2] was 10.8 nM.

B7: humanized anti-RAGE antibody h11E6.5 (antibody, V domains shown)
VH: EIQLVQSGSELKKPGASVKVSCKASGYTFTNFGMNWVRQAPGQGLEWMGYINTNTGESIYSEEFKGRFVFSLDTSVSTAYLQICSLKAEDTAVYFCARSRMVTAYGMDYWGQGTTVTVSS
VL: DIQMTQSPSSLSASVGDRVTITCKASQNVGTAVAWYQQKPGKAPKLLIYSASNRYTGVPSRFSGSGSGTDFTLTISSLQPEDFATYYCQQYSSYPLTFGQGTKLEIKR
notes: as for B2
In test [2], B7 yielded an IC50 of 16.1 nM.

B8: humanized anti-RAGE antibody h11E6.7 (antibody, V domains shown)
VH: EIQLVQSGSELKKPGASVKVSCKASGYTFTNFGMNWVRQAPGQGLEWMGYINTNTGESIYSEEFKGRFVFSLDTSVSTAYLQICSLKAEDTAVYFCARSRMVTAYGMDYWGQGTTVTVSS
VL: EIVMTQSPATLSLSPGERATLSCKASQNVGTAVAWYQQKPGQAPRLLIYSASNRYTGIPARFSGSGSGTDFTLTISSLQSEDFAVYYCQQYSSYPLTFGQGTKLEIKR
notes: as for B2
In test [2], B8 showed a half-inhibitory concentration (IC50) of 15.5 nM.

B9: humanized anti-RAGE antibody h11E6.4 (antibody, V domains shown)
VH: EVQLVQSGSELKKPGASVKVSCKASGYTFTNFGMNWVRQAPGQGLEWMGYINTNTGESIYSEEFKGRFVFSLDTSVSTAYLQICSLKAEDTAVYYCARSRMVTAYGMDYWGQGTTVTVSS
VL: EIVMTQSPATLSLSPGERATLSCKASQNVGTAVAWYQQKPGQSPRLLIFSASNRYTGVPARFSGSGSGTDFTLTISSLQSEDFAVYFCQQYSSYPLTFGQGTKLEIKR
notes: as for B2
B9 yielded an IC50 in test [2] of 14.1 nM.

B10: humanized anti-RAGE antibody h11E6.11 (antibody, V domains shown)
VH: EVQLVQSGAEVKKPGASVKVSCKASGYTFTNFGMNWVRQAPGQGLEWMGYINTNTGESIYSEEFKGRVTMTRDTSTSTAYMELSSLRSEDTAVYYCARSRMVTAYGMDYWGQGTSVTVSS
VL: EIVMTQSPATLSLSPGERATLSCKASQNVGTAVAWYQQKPGQAPRLLIYSASNRYTGIPARFSGSGSGTDFTLTISSLQSEDFAVYYCQQYSSYPLTFGQGTKLEIKR
notes: as for B2
As for B10, in test [2], the IC50 worked out at 19.9 nM.

B11: humanized anti-RAGE antibody h11E6.12 (antibody, V domains shown)
VH: EVQLVQSGAEVKKPGASVKVSCKASGYTFTNFGMNWVRQAPGQGLEWMGYINTNTGESIYSEEFKGRVTMTRDTSTSTAYMELSSLRSEDTAVYYCARSRMVTAYGMDYWGQGTSVTVSS
VL: EIVMTQSPATLSLSPGERATLSCKASQNVGTAVAWYQQKPGQSPRLLIFSASNRYTGVPARFSGSGSGTDFTLTISSLQSEDFAVYFCQQYSSYPLTFGQGTKLEIKR
notes: as for B2
In test [3], B11 had an equilibrium dissociation constant (Kd) of 0.083 nM, a koff of 0.0017 s⁻¹ and a kon of 2e+07 M⁻¹ s⁻¹. For the same molecule, the concentration for half-maximal inhibition (IC50) in test [2] amounted to 11.3 nM.

B12: humanized anti-RAGE antibody h11E6.15 (antibody, V domains shown)
VH: EIQLVQSGAEVKKPGASVKVSCKASGYTFTNFGMNWVRQAPGQGLEWMGYINTNTGESIYSEEFKGRFTFTLDTSTSTAYMELSSLRSEDTAVYFCARSRMVTAYGMDYWGQGTSVTVSS
VL: EIVMTQSPATLSLSPGERATLSCKASQNVGTAVAWYQQKPGQAPRLLIYSASNRYTGIPARFSGSGSGTDFTLTISSLQSEDFAVYYCQQYSSYPLTFGQGTKLEIKR
notes: as for B2
B12: the half-inhibitory concentration (IC50) in test [2] worked out at 14 nM.

B13: humanized anti-RAGE antibody h11E6.16 (antibody, V domains shown)
VH: EIQLVQSGAEVKKPGASVKVSCKASGYTFTNFGMNWVRQAPGQGLEWMGYINTNTGESIYSEEFKGRFTFTLDTSTSTAYMELSSLRSEDTAVYFCARSRMVTAYGMDYWGQGTSVTVSS
VL: EIVMTQSPATLSLSPGERATLSCKASQNVGTAVAWYQQKPGQSPRLLIFSASNRYTGVPARFSGSGSGTDFTLTISSLQSEDFAVYFCQQYSSYPLTFGQGTKLEIKR
notes: as for B2
In test [3], B13 came in with a Kd of 0.05 nM, a koff of 0.0014 s⁻¹ and a kon of 2.8e+07 M⁻¹ s⁻¹. The molecule also showed an IC50 in test [2] of 9.2 nM.
